Test [1] has as its target human mitochondrial complex I (NADH-coenzyme Q oxidoreductase) (human (endogenous in T-REx-293 shRNA-C3)).
Test [2] shares this target. The experiment in a line: native gel or EMSA; high-resolution clear native gel electrophoresis (HrCNE, 6.5% gel, 4 °C) of DDM-solubilised mitochondria of shRNA-C3 cells treated with 0.03 mg/mL TAT-NDUFS8 for 0-48 h; immunoblot with anti-NDUFS8 at the complex I location; intensity normalised to complex V (ATPase α subunit).

“TAT-NDUFS8 fusion protein (from UniProt O00217 35-210)” registered a complex I in-gel activity (NADH/NBT staining after HrCNE) of shRNA-C3 cells treated with 0.03 mg/mL TAT-NDUFS8 for 48 h; untreated shRNA-C3 cells about 83.6% of the wild type (% of the wild-type activity) in test [1] of 109. In addition, in test [2], the intensity of NDUFS8 at the complex I location after 48 h of treatment was 105%.

(Values after article PMC8234171.)
